This is an account of results in publication PMC6414702, “AtrR Is an Essential Determinant of Azole Resistance in Aspergillus fumigatus”.

Changes are numbered by the printed parent chain.

Data set [1] addresses T1, AtrR DNA-binding domain (AtrR-DBD) (Aspergillus fumigatus) (UniProt Q4WI89).
T1 sequence: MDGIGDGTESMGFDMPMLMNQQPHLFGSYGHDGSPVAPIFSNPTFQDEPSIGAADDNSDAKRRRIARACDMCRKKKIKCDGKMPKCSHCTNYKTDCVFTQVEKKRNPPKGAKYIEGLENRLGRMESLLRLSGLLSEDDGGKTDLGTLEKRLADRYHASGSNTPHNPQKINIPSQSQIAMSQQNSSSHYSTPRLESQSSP
The data set can be described thus: EMSA. The settings on record: Biotin EMSA: 25 mM Tris-HCl pH 7.5, 80 mM NaCl, 35 mM KCl, 5 mM MgCl2, 10% glycerol, 1 ug poly(dI-dC), 20 ul, 0.1 ug AtrR-DBD, 20 pmol probe, room temperature ….

For data set [2], the target named is T2, AtrR DNA-binding domain (AtrR-DBD) (Aspergillus fumigatus, UniProt Q4WI89 1-199).
T2 sequence: T1 sequence
Kind of data set: competition; 10-fold excess over biotinylated 34-bp probe (12-fold in Methods); Biotin EMSA: 25 mM Tris-HCl pH 7.5, 80 mM NaCl, 35 mM KCl, 5 mM MgCl2, 10% glycerol, 1 ug poly(dI-dC), 20 ul, 0.1 ug AtrR-DBD, 20 pmol probe, room temperature 30 min; 32P EMSA and footprinting as in cited reference 40. The settings on record: protein: recombinant; chain copies: 2; blunt. (A gel shift assay detects complexes by their altered migration in electrophoresis.)

Data set [3] addresses T2, AtrR DNA-binding domain (AtrR-DBD). Kind of data set: EMSA; 5 mM Mg2+, poly(dI-dC); Biotin EMSA: 25 mM Tris-HCl pH 7.5, 80 mM NaCl, 35 mM KCl, 5 mM MgCl2, 10% glycerol, 1 ug poly(dI-dC), 20 ul, 0.1 ug AtrR-DBD, 20 pmol probe, room temperature 30 min; 32P EMSA and footprinting as in cited reference 40. Particulars: protein: recombinant; chain copies: 2; label: 5' biotin on both strands; blunt.

As to “GAAAAAACTCATGAGTGAATAATCGCAGCACCACTCCAGAGTTGTCTAGAATCACGCGGTCCGGATGTGTGCTGAGCCGAATGAAAGTTGCCTAATTACTAAGGTGTAGTTCCAGCATACCATACACCCTAACTCATACTACGGTAGGTAGATCTACTTACCTATGAACCTATATTGGTAGGTAGGTGAATATAAAATACAGCATG (double strand) [cyp51A promoter PCR probe]”, the binding result in data set [1] was “binds”.

B1: SphI mutant competitor (dsDNA)
DNA 1: GTTGTCTCAGAATCACGCGGGCATGCTGTGTGCTGAGCCGAAT
DNA 2: ATTCGGCTCAGCACACAGCATGCCCGCGTGATTCTGAGACAAC
B1: the binding result in data set [2] is recorded as “no binding”.

B2: EcoRI mutant competitor (dsDNA)
DNA 1: GTTGTCTCAGAATCACGCGGTCCGGATGTGGAATTCGCCGAAT
DNA 2: ATTCGGCGAATTCCACATCCGGACCGCGTGATTCTGAGACAAC
Regarding B2, the binding result in data set [2] is recorded as “binds”.

B3: cyp51A 42-bp wild-type competitor (dsDNA)
DNA 1: B1 DNA 1 with G21T, A23C, T24G, C26A
DNA 2: B1 DNA 2 with G18T, A20C, T21G, C23A
In the case of B3, the binding result in data set [2] is on record as “binds”.

B4: DM competitor (dsDNA)
DNA 1: GAATCACGCGGTATTGATGTGTGCTGAGTATAAT
DNA 2: ATTATACTCAGCACACATCAATACCGCGTGATTC
Consider B4, for which, in data set [2], the binding result is “no binding”.

B5: cyp51A 34-bp probe (dsDNA)
DNA 1: GAATCACGCGGTCCGGATGTGTGCTGAGCCGAAT
DNA 2: ATTCGGCTCAGCACACATCCGGACCGCGTGATTC
Turning to B5, the binding result in data set [3] is “binds”.
